Reference: US20160002357A1

Tests used:
huP-cad-ECD (human) = huP-cad-ECD (human) (UniProt P22223); assay: ELISA, recombinant protein
muP-cad-ECD (murine) = muP-cad-ECD (murine) (UniProt P10287); assay: ELISA, recombinant protein
[1] = biological target: huP-cad-ECD biotinylated (human) (UniProt P22223); assay: ELISA, recombinant protein
[2] = biological target: human P-cadherin expressed on the cell surface (human) (UniProt P22223); assay: cell ELISA, H1650 cells
[3] = biological target: human P-cadherin expressed on the cell surface (human) (UniProt P22223); assay: cell ELISA, CHO-huPcad cells
[4] = biological target: human P-cadherin expressed on the cell surface (human) (UniProt P22223); assay: cell ELISA, SW480-huPcad cells
[5] = biological target: human P-cadherin, cell surface expressed (human) (UniProt P22223); assay: flow cytometry, PE-conjugated mAb, BT20_Luc cells
[6] = biological target: human P-cadherin, cell surface expressed (human) (UniProt P22223); assay: flow cytometry, PE-conjugated mAb, SW480 cells
[7] = biological target: human P-cadherin, cell surface expressed (human) (UniProt P22223); assay: flow cytometry, PE-conjugated mAb, Ls174T_Luc cells
[8] = biological target: human P-cadherin, cell surface expressed (human) (UniProt P22223); assay: flow cytometry, PE-conjugated mAb, H1650_Luc cells
[9] = biological target: human P-cadherin, cell surface expressed (human) (UniProt P22223); assay: flow cytometry, PE-conjugated mAb, SW480_Luc cells
[10] = biological target: human P-cadherin, cell surface expressed (human) (UniProt P22223); assay: flow cytometry, PE-conjugated mAb, HT29_Luc cells
[11] = biological target: human P-cadherin, cell surface expressed (human) (UniProt P22223); assay: flow cytometry, PE-conjugated mAb, SUM149_Luc cells
[12] = biological target: human P-cadherin, cell surface expressed (human) (UniProt P22223); assay: flow cytometry, PE-conjugated mAb, H1975_Luc cells
[13] = biological target: human P-cadherin, cell surface expressed (human) (UniProt P22223); assay: flow cytometry, PE-conjugated mAb, LoVo_Luc cells
[14] = biological target: human P-cadherin, cell surface expressed (human) (UniProt P22223); assay: flow cytometry, PE-conjugated mAb, HCT116_Luc cells
[15] = biological target: human P-cadherin, cell surface expressed (human) (UniProt P22223); assay: flow cytometry, PE-conjugated mAb, SW620_Luc cells
[16] = biological target: human P-cadherin, cell surface expressed (human) (UniProt P22223); assay: flow cytometry, PE-conjugated mAb, HCT116 cells
[17] = biological target: human P-cadherin, cell surface expressed (human) (UniProt P22223); assay: flow cytometry, PE-conjugated mAb, Ls174T cells
[18] = biological target: human P-cadherin, cell surface expressed (human) (UniProt P22223); assay: flow cytometry, PE-conjugated mAb, SUM149 cells
[19] = biological target: human P-cadherin, cell surface expressed (human) (UniProt P22223); assay: flow cytometry, PE-conjugated mAb, SW620 cells
[20] = biological target: human P-cadherin, cell surface expressed (human) (UniProt P22223); assay: flow cytometry, PE-conjugated mAb, Colo205_Luc cells
[21] = biological target: human P-cadherin, cell surface expressed (human) (UniProt P22223); assay: flow cytometry, PE-conjugated mAb, H322_Luc cells
[22] = biological target: human P-cadherin, cell surface expressed (human) (UniProt P22223); assay: flow cytometry, PE-labeled mAb, H322_Luc cells
[23] = biological target: human P-cadherin, cell surface expressed (human) (UniProt P22223); assay: flow cytometry, PE-labeled mAb, SW480 cells
[24] = biological target: human P-cadherin, cell surface expressed (human) (UniProt P22223); assay: flow cytometry, PE-labeled mAb, SW620 cells
[25] = biological target: human P-cadherin, cell surface expressed (human) (UniProt P22223); assay: quantitative flow cytometry (QuantiBRITE PE), Ls174T_Luc cells
[26] = biological target: human P-cadherin, cell surface expressed (human) (UniProt P22223); assay: quantitative flow cytometry (QuantiBRITE PE), SUM149_Luc cells
[27] = biological target: human P-cadherin, cell surface expressed (human) (UniProt P22223); assay: flow cytometry, PE-labeled mAb, SUM149_Luc cells
[28] = biological target: human P-cadherin, cell surface expressed (human) (UniProt P22223); assay: quantitative flow cytometry (QuantiBRITE PE), SUM149 cells
[29] = biological target: human P-cadherin, cell surface expressed (human) (UniProt P22223); assay: flow cytometry, PE-labeled mAb, HT29_Luc cells
[30] = biological target: human P-cadherin, cell surface expressed (human) (UniProt P22223); assay: quantitative flow cytometry (QuantiBRITE PE), H1975_Luc cells
[31] = biological target: human P-cadherin, cell surface expressed (human) (UniProt P22223); assay: quantitative flow cytometry (QuantiBRITE PE), H1650_Luc cells
[32] = biological target: human P-cadherin, cell surface expressed (human) (UniProt P22223); assay: quantitative flow cytometry (QuantiBRITE PE), SW480 cells
[33] = biological target: human P-cadherin, cell surface expressed (human) (UniProt P22223); assay: quantitative flow cytometry (QuantiBRITE PE), SW480_Luc cells
[34] = biological target: human P-cadherin, cell surface expressed (human) (UniProt P22223); assay: flow cytometry, PE-labeled mAb, Ls174T_Luc cells
[35] = biological target: human P-cadherin, cell surface expressed (human) (UniProt P22223); assay: quantitative flow cytometry (QuantiBRITE PE), Colo205_Luc cells
[36] = biological target: human P-cadherin, cell surface expressed (human) (UniProt P22223); assay: quantitative flow cytometry (QuantiBRITE PE), BT20_Luc cells
[37] = biological target: human P-cadherin, cell surface expressed (human) (UniProt P22223); assay: flow cytometry, PE-labeled mAb, Colo205_Luc cells
[38] = biological target: human P-cadherin, cell surface expressed (human) (UniProt P22223); assay: flow cytometry, PE-labeled mAb, LoVo_Luc cells
[39] = biological target: human P-cadherin, cell surface expressed (human) (UniProt P22223); assay: flow cytometry, PE-labeled mAb, HCT116_Luc cells
[40] = biological target: human P-cadherin, cell surface expressed (human) (UniProt P22223); assay: quantitative flow cytometry (QuantiBRITE PE), SW620_Luc cells
[41] = biological target: human P-cadherin, cell surface expressed (human) (UniProt P22223); assay: flow cytometry, PE-labeled mAb, H1975_Luc cells
[42] = biological target: human P-cadherin, cell surface expressed (human) (UniProt P22223); assay: flow cytometry, PE-labeled mAb, Ls174T cells
[43] = biological target: human P-cadherin, cell surface expressed (human) (UniProt P22223); assay: quantitative flow cytometry (QuantiBRITE PE), H322_Luc cells
[44] = biological target: human P-cadherin, cell surface expressed (human) (UniProt P22223); assay: flow cytometry, PE-labeled mAb, SW480_Luc cells
[45] = biological target: human P-cadherin, cell surface expressed (human) (UniProt P22223); assay: quantitative flow cytometry (QuantiBRITE PE), HT29_Luc cells
[46] = biological target: human P-cadherin, cell surface expressed (human) (UniProt P22223); assay: quantitative flow cytometry (QuantiBRITE PE), Ls174T cells
[47] = biological target: human P-cadherin, cell surface expressed (human) (UniProt P22223); assay: flow cytometry, PE-labeled mAb, H1650_Luc cells
[48] = biological target: human P-cadherin, cell surface expressed (human) (UniProt P22223); assay: quantitative flow cytometry (QuantiBRITE PE), SW620 cells
[49] = biological target: human P-cadherin, cell surface expressed (human) (UniProt P22223); assay: quantitative flow cytometry (QuantiBRITE PE), HCT116_Luc cells
[50] = biological target: human P-cadherin, cell surface expressed (human) (UniProt P22223); assay: flow cytometry, PE-labeled mAb, BT20_Luc cells
[51] = biological target: human P-cadherin, cell surface expressed (human) (UniProt P22223); assay: flow cytometry, PE-labeled mAb, SW620_Luc cells
[52] = biological target: human P-cadherin, cell surface expressed (human) (UniProt P22223); assay: flow cytometry, PE-labeled mAb, SUM149 cells
[53] = biological target: human P-cadherin, cell surface expressed (human) (UniProt P22223); assay: quantitative flow cytometry (QuantiBRITE PE), LoVo_Luc cells
[54] = biological target: human P-cadherin, cell surface expressed (human) (UniProt P22223); assay: flow cytometry, PE-labeled mAb, HCT116 cells
[55] = biological target: human P-cadherin, cell surface expressed (human) (UniProt P22223); assay: quantitative flow cytometry (QuantiBRITE PE), HCT116 cells

human P-cadherin, cell surface expressed (human), sequence (P22223 108-829): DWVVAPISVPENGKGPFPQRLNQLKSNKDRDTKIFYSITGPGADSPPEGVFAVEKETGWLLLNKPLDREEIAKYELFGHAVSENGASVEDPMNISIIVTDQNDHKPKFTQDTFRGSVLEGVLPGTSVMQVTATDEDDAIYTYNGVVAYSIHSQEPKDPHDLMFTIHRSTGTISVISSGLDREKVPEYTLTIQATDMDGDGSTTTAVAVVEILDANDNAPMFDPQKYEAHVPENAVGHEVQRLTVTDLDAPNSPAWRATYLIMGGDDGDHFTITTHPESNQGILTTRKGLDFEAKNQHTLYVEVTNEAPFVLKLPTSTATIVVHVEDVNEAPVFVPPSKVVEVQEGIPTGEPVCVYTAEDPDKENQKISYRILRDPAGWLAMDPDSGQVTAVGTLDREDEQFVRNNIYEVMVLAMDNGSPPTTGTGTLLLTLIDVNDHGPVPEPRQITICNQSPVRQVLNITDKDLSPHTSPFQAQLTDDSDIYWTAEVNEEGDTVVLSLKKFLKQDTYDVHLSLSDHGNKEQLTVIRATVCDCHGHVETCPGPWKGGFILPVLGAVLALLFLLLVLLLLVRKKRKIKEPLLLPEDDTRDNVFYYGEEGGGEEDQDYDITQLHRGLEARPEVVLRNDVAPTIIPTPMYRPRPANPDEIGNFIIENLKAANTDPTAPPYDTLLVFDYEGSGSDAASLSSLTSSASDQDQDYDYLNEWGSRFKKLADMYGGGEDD
human P-cadherin expressed on the cell surface (human), sequence (P22223 108-829): as above
huP-cad-ECD (human), sequence (P22223 108-654): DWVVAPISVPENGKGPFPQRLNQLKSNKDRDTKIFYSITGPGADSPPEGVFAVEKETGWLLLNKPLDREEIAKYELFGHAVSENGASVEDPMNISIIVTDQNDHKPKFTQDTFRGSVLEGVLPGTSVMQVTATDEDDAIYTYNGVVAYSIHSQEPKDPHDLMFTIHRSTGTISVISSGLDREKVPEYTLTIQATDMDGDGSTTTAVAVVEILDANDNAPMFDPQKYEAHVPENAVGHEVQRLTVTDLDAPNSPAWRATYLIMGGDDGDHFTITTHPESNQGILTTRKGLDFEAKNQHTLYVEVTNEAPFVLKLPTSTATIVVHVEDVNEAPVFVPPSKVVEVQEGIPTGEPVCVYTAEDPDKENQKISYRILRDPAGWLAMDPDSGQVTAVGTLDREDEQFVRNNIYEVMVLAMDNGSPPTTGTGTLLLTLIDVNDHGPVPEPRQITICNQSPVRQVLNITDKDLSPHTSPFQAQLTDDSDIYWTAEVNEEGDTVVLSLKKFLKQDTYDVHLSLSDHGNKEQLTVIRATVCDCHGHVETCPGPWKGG
huP-cad-ECD biotinylated (human), sequence (P22223 108-654): as above
muP-cad-ECD (murine), sequence (P10287 100-647): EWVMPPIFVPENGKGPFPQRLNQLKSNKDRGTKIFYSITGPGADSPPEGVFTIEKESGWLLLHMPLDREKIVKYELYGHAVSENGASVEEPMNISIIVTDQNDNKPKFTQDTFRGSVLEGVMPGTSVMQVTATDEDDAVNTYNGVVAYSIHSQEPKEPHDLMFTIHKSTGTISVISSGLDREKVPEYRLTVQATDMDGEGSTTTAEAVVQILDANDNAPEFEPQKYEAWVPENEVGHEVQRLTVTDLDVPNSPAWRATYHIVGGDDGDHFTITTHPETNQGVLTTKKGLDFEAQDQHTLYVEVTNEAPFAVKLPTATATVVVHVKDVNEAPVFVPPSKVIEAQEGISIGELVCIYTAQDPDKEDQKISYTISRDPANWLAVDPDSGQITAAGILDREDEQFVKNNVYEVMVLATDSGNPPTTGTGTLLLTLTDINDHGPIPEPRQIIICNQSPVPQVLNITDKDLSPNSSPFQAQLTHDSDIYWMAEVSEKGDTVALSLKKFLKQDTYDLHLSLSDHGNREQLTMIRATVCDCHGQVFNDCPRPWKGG

## anti-P-cadherin clinical mAb PF-03732010 (antibody)
huP-cad-ECD (human)
  EC50: 1.94 nM
muP-cad-ECD (murine)
  EC50: 2.33 nM
[1]
  EC50: 0.0188 nM
[2]
  EC50: 0.209 nM
[3]
  EC50: 0.329 nM
[4]
  EC50: 0.167 nM

## control mouse IgG1 mAb (Biolegend), PE conjugated (antibody)
[5]
  MFI: 225
[6]
  MFI: 171
[7]
  MFI: 94
[8]
  MFI: 254
[9]
  MFI: 151
[10]
  MFI: 282
[11]
  MFI: 213
[12]
  MFI: 373
[13]
  MFI: 175
[14]
  MFI: 229
[15]
  MFI: 125
[16]
  MFI: 239
[17]
  MFI: 222
[18]
  MFI: 68
[19]
  MFI: 88
[20]
  MFI: 173
[21]
  MFI: 242

## anti-human P-cadherin mAb PF-03732010, phycoerythrin (PE) labeled (antibody)
[22]
  MFI: 3230
[23]
  MFI: 2470
[24]
  MFI: 297
[25]
  ABC (antibodies bound per cell) (antibodies bound per cell): 929
[26]
  ABC (antibodies bound per cell) (antibodies bound per cell): 17000
[27]
  MFI: 3720
[28]
  ABC (antibodies bound per cell) (antibodies bound per cell): 15400
[29]
  MFI: 787
[30]
  ABC (antibodies bound per cell) (antibodies bound per cell): 15400
[31]
  ABC (antibodies bound per cell) (antibodies bound per cell): 37600
[32]
  ABC (antibodies bound per cell) (antibodies bound per cell): 12700
[33]
  ABC (antibodies bound per cell) (antibodies bound per cell): 5300
[34]
  MFI: 290
[35]
  ABC (antibodies bound per cell) (antibodies bound per cell): 874
[36]
  ABC (antibodies bound per cell) (antibodies bound per cell): 24300
[37]
  MFI: 357
[38]
  MFI: 1390
[39]
  MFI: 5660
[40]
  ABC (antibodies bound per cell) (antibodies bound per cell): 715
[41]
  MFI: 3160
[42]
  MFI: 986
[43]
  ABC (antibodies bound per cell) (antibodies bound per cell): 16600
[44]
  MFI: 1260
[45]
  ABC (antibodies bound per cell) (antibodies bound per cell): 2420
[46]
  ABC (antibodies bound per cell) (antibodies bound per cell): 4160
[47]
  MFI: 7960
[48]
  ABC (antibodies bound per cell) (antibodies bound per cell): 1120
[49]
  ABC (antibodies bound per cell) (antibodies bound per cell): 26400
[50]
  MFI: 5240
[51]
  MFI: 276
[52]
  MFI: 2870
[53]
  ABC (antibodies bound per cell) (antibodies bound per cell): 5800
[54]
  MFI: 8030
[55]
  ABC (antibodies bound per cell) (antibodies bound per cell): 43800
